# Source: patent US20220047631A1
# How the values were obtained:
# Glycopeptide = experiment: surface plasmon resonance, Table S3 of Brooks et al. (2010) PNAS drawn on the sheet; per legend paragraph 58 measured for the 237 Fab [C]
# [1] = molecular target: Tn-glycosylated murine podoplanin on COSMC-mutant cells (murine) (UniProt Q62011); experiment: flow cytometry on Ag104A, Jurkat and SKOV3 variants; binding ratio = MFI primary+secondary / MFI secondary alone
# Chain of Tn-glycosylated murine podoplanin on COSMC-mutant cells (murine) (Q62011 23-172, change not shown): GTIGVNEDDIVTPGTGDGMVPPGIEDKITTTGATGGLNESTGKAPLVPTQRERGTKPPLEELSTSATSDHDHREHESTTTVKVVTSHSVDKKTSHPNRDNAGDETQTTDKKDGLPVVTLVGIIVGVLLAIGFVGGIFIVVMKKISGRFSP
koff (Glycopeptide) [s⁻¹],kon (Glycopeptide) [M⁻¹ s⁻¹],fold of binding ratio over cells that were PDPN- and/or Cosmc+ [1] [fold],Binder
0.013,94000,,"237mAb Fab (Fab, V domains shown) VH: QVQLQQSGGGLVQPGGSMKIFCAASGFTFSDAWMDWVRQSPEKGLEWVAEIRNKANNHETYYAESVKGRFTITRDDSKSRMSLQMNSLRAEDTGIYYCSGGKVRNAYWGQGTTVTVSS VL: DIQLTQSPLSLPVSLGDQASISCRSSQSLVHSNGNTYLHWYLQKPGQSPKLLIYKVSNRFSGVPDRFSGSGSGTDFTLKISSVEAEDLGVYFCSQSTHVPTFGGGTKLEIK"
,,> 100,"237 monoclonal antibody (antibody, V domains shown) VH: QVQLQQSGGGLVQPGGSMKIFCAASGFTFSDAWMDWVRQSPEKGLEWVAEIRNKANNHETYYAESVKGRFTITRDDSKSRMSLQMNSLRAEDTGIYYCSGGKVRNAYWGQGTTVTVSS VL: DIQLTQSPLSLPVSLGDQASISCRSSQSLVHSNGNTYLHWYLQKPGQSPKLLIYKVSNRFSGVPDRFSGSGSGTDFTLKISSVEAEDLGVYFCSQSTHVPTFGGGTKLEIK"
